Patent US20200121803A1 (published 2020)
Residue numbers refer to the chain shown, from its start.

B1: Ab8-CZ (Ab8 conjugated to Bcl-xL inhibitor synthon CZ) (antibody, V domains shown)
VH: EVQLVESGGGLVQPGRSLKLSCAASGFTFSDYAMAWVRQAPKKGLEWVASIIYDGRGTYYRDSVKGRFTISRDNAKSTLYLQMDSLRSEDTATYYCARQGDGTYYYWGYFDYWGQGVMVTVSS
VL: DIVMTQSPSSLAVSAGETVTINCKSSQSLLSSGNQKNYLAWYQQKPGQSPKLLIYWASTRQSGVPDRFIGSGSGTDFTLTINSVQAEDLAIYYCQQYYDTPYTFGAGTKLELK
B2: Ab11-CZ (Ab11 conjugated to Bcl-xL inhibitor synthon CZ) (antibody, V domains shown)
VH: B1 VH with S50G
VL: B1 VL with K24R, N82S
B3: Ab15-CZ (Ab15 conjugated to Bcl-xL inhibitor synthon CZ) (antibody, V domains shown)
VH: B1 VH with A33T, S50T, G100S
VL: B1 VL with S31F, N82R, T100S
B4: Ab10-CZ (Ab10 conjugated to Bcl-xL inhibitor synthon CZ) (antibody, V domains shown)
VH: B1 VH with G44S, S50T, Y60C, Y105H
VL: B1 VL with N82S, L110V, E111D
B5: Ab12-CZ (Ab12 conjugated to Bcl-xL inhibitor synthon CZ) (antibody, V domains shown)
VH: B1 VH with Y109S
VL: B1 VL with N82S, Y93H
B6: Ab6-CZ (Ab6 conjugated to Bcl-xL inhibitor synthon CZ) (antibody, V domains shown)
VH: QVQLKESGPGLAQPSQTLSLTCTVSGFSLSTYGVIWLRQPPGKGLEWMGVIWTNGNTNYNSTLKSRLSISRDTSESQVYLQMNSLQTEDTATYYCARHYYDGAYYYGYFDYWGQGVMVTVSS
VL: DIVMTQTPSSQAVSAGEKVTMSCKSSQSLLYSENKKNYLAWYQQKPGQSPKLLIYWASTRESGVPDRFIGSGSGTDFTLTISSVQAEDLAVYYCQQYYYFPYTFGAGTKLELK
B7: Ab7-CZ (Ab7 conjugated to Bcl-xL inhibitor synthon CZ) (antibody, V domains shown)
VH: B6 VH with A12V, L37V, T53A, E75K, Q81K, A103T
VL: B6 VL with S22N, A106P
B8: Ab13-CZ (Ab13 conjugated to Bcl-xL inhibitor synthon CZ) (antibody, V domains shown)
VH: B6 VH with A12V, T31S, L37V, V50I, T53A, T62A, E75K, Q81K, A103T, Y104H
VL: B6 VL with I2T, N37K, Y99N
B9: Ab9-CZ (Ab9 conjugated to Bcl-xL inhibitor synthon CZ) (antibody, V domains shown)
VH: B6 VH with A12V, T23A, T31N, L37V, G49A, E75K, Q81K, A103T
VL: B6 VL with S32T, I69M, T103M
B10: Ab14-CZ (Ab14 conjugated to Bcl-xL inhibitor synthon CZ) (antibody, V domains shown)
VH: EVKLQQSGDELVRPGASVKISCKASGYTFTSYSMHWVKERPGQGLEWIGAIFPIIGTTEYNQKFKGKATLTADKSSNTANMELSRLTSEDSAVYYCARVYLSYFDYWGQGVMVTVSS
VL: DIQMTQSPSFLSASVGDRVTINCKASQNINKYLDWYQRKHGEAPKLLIYNTNNLQTGIPSRFSGSGSGTDYTLTISSLQPEDVATYFCLQHSSRYTFGAGTKLELK
B11: CD98 (CL-huAb110)-ZZ (antibody, human IgG1, kappa, L234A L235A, V domains shown)
VH: EVQLVQSGAEVKKPGASVKVSCKASGFTFSDYTMAWVRQAPGQGLEWVATIIYDARGTYYRDAVKGRFTITRDNSTSTLYLELSSLRSEDTAVYYCARQSDDTYYYWGYFDYWGQGTMVTVSS
VL: DIVMTQTPLSLPVTPGEPASINCKSSQSLLFSGNQKNYLAWYLQKPGQSPQLLIYWASTRQSGVPDRFSGSGSGTDFTLKISRVEAEDVGIYYCQQYYSSPYTFGQGTKLEIKR
modifications: synthon ZZ on reduced cysteine (see heavy chain); Bcl-xL inhibitor synthon ZZ on cysteines freed by TCEP reduction (Method G); DAR 1.0 by MS for the whole ADC
B12: CD98 (CL-huAb110)-XW (antibody, human IgG1, kappa, L234A L235A, V domains shown)
VH: B11 VH
VL: B11 VL
modifications: synthon XW on reduced cysteine (see heavy chain); Bcl-xL inhibitor synthon XW on cysteines freed by TCEP reduction (Method G); DAR 3.2 by MS for the whole ADC
B13: CD98 (CL-huAb104)-XW (antibody, human IgG1, kappa, L234A L235A, V domains shown)
VH: EVQLVESGGGLVQPGGSLRLSCATSGFTFIDYYMSWVRQAPGKGLEWLGFIRNKAYGYTTEYSASVKGRFTISRDNSKSILYLQMNSLKTEDTAVYYCTRDRPAWFVYWGQGTLVTVSS
VL: B11 VL with N22S, F31Y, G33S, Q61E, I91V, S100Y, Q106G, L110V
modifications: synthon XW on reduced cysteine (see heavy chain); Bcl-xL inhibitor synthon XW on cysteines freed by TCEP reduction (Method G); DAR 3.1 by MS for the whole ADC
B14: CD98 (CL-huAb108)-XW (antibody, human IgG1, kappa, L234A L235A, V domains shown)
VH: B11 VH with D54S, A55G
VL: B11 VL with S99D, S100V
modifications: synthon XW on reduced cysteine (see heavy chain); Bcl-xL inhibitor synthon XW on cysteines freed by TCEP reduction (Method G); DAR 3.5 by MS for the whole ADC
B15: CD98 (CL-huAb102)-XW (antibody, human IgG1, kappa, L234A L235A, V domains shown)
VH: B13 VH with Y56N, G57R
VL: B11 VL with N22S, F31Y, G33S, Q61E, I91V, S100Y, Q106G, L110V
modifications: synthon XW on reduced cysteine (see heavy chain); Bcl-xL inhibitor synthon XW on cysteines freed by TCEP reduction (Method G); DAR 2.8 by MS for the whole ADC
B16: Ab5-CZ (Ab5 conjugated to Bcl-xL inhibitor synthon CZ) (antibody, V domains shown)
VH: EVKLVESGGGLVQPGGSLRLSCATSGFTFTDYYMTWVRQPPGKALEWLGFIRNKANGYTTEYSASVKGRFTISRDNSLSILYLQMNTLRAEDSATYYCARASYVNSEGWFAYWGQGTLVTVSA
VL: DIVMSQSPSSLAVSVGEKVTMSCKSSQSLLYSSNQKNYLAWYQQKLGQSPKLLIYWASTRESGVPDRFTGSGSGTDFTLTISSVKAEDLAVYYCQHYYSYPRTFGGGTKLEIK
B17: Ab3-CZ (Ab3 conjugated to Bcl-xL inhibitor synthon CZ) (antibody, V domains shown)
VH: EVKLVESGGGLVQPGNSLRLSCATSGFTFIDYYMSWVRQSPGKALEWLGFIRNKANGYTTEYSASVKGRFTISRDNSQSILYLQMDTLRAEDSATYYCTRDRPAWFVYWGQGTLVTVSA
VL: B16 VL with L46P, I81F, K85R, H96Q, R102Y
B18: Ab2-CZ (Ab2 conjugated to Bcl-xL inhibitor synthon CZ) (antibody, V domains shown)
VH: B16 VH with T28N, T35S, N76D, L78Q, V104G
VL: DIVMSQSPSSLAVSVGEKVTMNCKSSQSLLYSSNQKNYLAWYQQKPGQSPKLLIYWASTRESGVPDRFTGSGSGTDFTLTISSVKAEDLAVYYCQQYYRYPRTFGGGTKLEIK

Assays:
[1] = target: T1, Human CD98, endogenous on HCC38, Molt-4 and Jurkat human cancer cells (human); assay: cell-based or functional assay
T1 chain: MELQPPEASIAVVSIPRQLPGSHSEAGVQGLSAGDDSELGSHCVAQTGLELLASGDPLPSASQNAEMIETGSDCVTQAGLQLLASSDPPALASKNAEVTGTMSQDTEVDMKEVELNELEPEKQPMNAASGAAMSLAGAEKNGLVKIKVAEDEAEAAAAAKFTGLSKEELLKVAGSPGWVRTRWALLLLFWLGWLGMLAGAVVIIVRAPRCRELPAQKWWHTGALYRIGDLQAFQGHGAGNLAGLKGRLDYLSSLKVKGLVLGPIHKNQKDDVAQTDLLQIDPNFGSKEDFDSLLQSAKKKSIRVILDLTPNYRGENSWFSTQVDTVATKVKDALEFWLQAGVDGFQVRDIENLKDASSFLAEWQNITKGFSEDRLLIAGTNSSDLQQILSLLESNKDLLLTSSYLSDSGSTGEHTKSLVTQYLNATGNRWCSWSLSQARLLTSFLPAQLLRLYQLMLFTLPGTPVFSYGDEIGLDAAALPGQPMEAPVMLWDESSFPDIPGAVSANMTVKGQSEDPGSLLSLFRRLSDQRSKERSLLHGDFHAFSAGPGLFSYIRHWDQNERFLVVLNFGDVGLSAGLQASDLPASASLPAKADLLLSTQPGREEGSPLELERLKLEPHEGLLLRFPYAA

[2] = target: T2, human CD98, endogenously expressed on Molt-4 human acute lymphoblastic leukemia cells (human); assay: cell-based or functional assay
T2 chain: T1 chain

Binder | ADC potency, IC50 (nM), HCC38 growth inhibition [1] [nM] | ADC potency, IC50 (nM), Jurkat growth inhibition [1] [nM] | ADC potency, IC50 (nM), Molt-4 growth inhibition [1] [nM] | % Cell Viability at 50 nM (Molt-4) [2] [%] | Molt4 IC50 (nM), 50% inhibition of cell proliferation, 72 h, ATPlite [2] [nM]
B1 | 0.963 | 0.121 | 0.079 |  | 
B2 | 1.14 | 0.311 | 0.279 |  | 
B3 | 1.06 | 0.076 | 0.071 |  | 
B4 | 1.16 | 0.148 | 0.047 |  | 
B5 | 0.685 | 0.094 | 0.087 |  | 
B6 | 0.438 | 0.086 | 0.057 |  | 
B7 | 1.15 | 0.134 | 0.079 |  | 
B8 | 0.787 | 0.149 | 0.38 |  | 
B9 | 1.09 | 0.092 | 0.03 |  | 
B10 | 0.798 | 0.063 | 0.025 |  | 
B11 |  |  |  | 4.3 | 0.252
B12 |  |  |  | 19.6 | 0.308
B13 |  |  |  | 31.1 | 0.102
B14 |  |  |  | 20.9 | 0.281
B15 |  |  |  | 32 | 0.074
B16 | 0.728 | 0.137 | 0.022 |  | 
B17 | 0.561 | 0.071 | 0.031 |  | 
B18 | 0.791 | 0.065 | 0.05 |  | 
